Source: patent US20260347399A1, “BRAIN PENETRATING PEPTIDES AND METHODS OF USE” (priority 2022, published 2026)
Entries after “also recorded” stand apart in the source; their conditions may differ.

Legend:
[1] = test system: GBM and normal brain parenchyma; test: Synthetic peptide homing in glioma-bearing mice (IHC); type: in vivo, mouse; conditions: synthetic peptide i.v., 1 h
Procedure: (§1) CVGTNCY (SEQ ID NO:2) peptide-phage or control phage were injected iv into mice, after one hour circulation animals were perfused with 20 ml PBS, organs were collected, weighed, and dropped to 1% NP40-LB solution. Organs were homogenized and titer of each tissue was determined. FAM-labeled peptides (2 mM of peptide in PBS) were injected intravenously and 3 hours later the animals were perfused with 20 mL of PBS. The organs were excised, snap-frozen in the vapor of liquid nitrogen, and stored at −80 °C. For confocal microscopy, the tissues were sectioned at 15 μm and stained with antibodies and DAPI.
Cryosections (15 μm) on Superfrost Plus slides were fixed in cold methanol, washed in PBS, treated with 3% hydrogen peroxide, and blocked in PBS containing 0.05% Tween-20, 5% BSA, and 5% goat serum (GE Healthcare, UK) for 1 h. The sections were immunostained with rabbit anti-fluorescein (cat #A889, Thermo Fisher Scientific, MA, USA) antibody overnight at +4 °C. […] Sections were imaged with Leica Aperio VERSA microscope slide scanner. Imaged were processed with Aperio Image Scope (v12.4.3.5008).
The synthetic CVGTNCY (SEQ ID NO:2) peptide or scrambled CVGTNCY (SEQ ID NO:2) homing in WT-GBM and VEGFko GBM-bearing mice was analyzed after i.v. injection and perfusion of the animals. Cryosections of glioma-bearing brains were stained with anti-FAM antibody and tyramide amplification kit to enhance the signal of the peptide.
(§2) To assess homing of CVG peptide in glioblastoma, CVGTNCY (SEQ ID NO:2) peptide-phage was injected iv into mice bearing either WT-GBM, VEGFko, U87MG or NCH421k GBM, and to mice without a tumor. At one hour time point mice were perfused, brains and control organs collected and titered. […] (FIGS. 17A-17B) Distribution of CVG peptide in GBM and brain parenchyma was also assessed. CVGTNCY (SEQ ID NO:2) peptide or its scrambled version (CVYTCNG; (SEQ ID NO: 68)) was injected iv into glioma bearing mice, after 1 hour circulation mice were perfused and tissues of interest snap-frozen in liquid nitrogen.

brain tissue homogenate = test: Peptide-phage binding to brain tissue homogenate ex vivo; design: species or system mouse
[2] = test system: WT-GBM, VEGFko, U87MG or NCH421k GBM; test: CVG peptide-phage homing in glioblastoma (four models); type: in vivo, mouse; conditions: peptide-phage i.v., 1 h
Procedure: as §2

mouse CNS = test: CVGTNCY peptide-phage biodistribution; type: in vivo
Procedure: as §1
To describe the utility of CVGTNCY (SEQ ID NO:2) peptide as a systemic CNS homing peptide, the biodistribution of CVGTNCY (SEQ ID NO:2) peptide-phage as well as peptide-functionalized AgNPs were analyzed in rodents. […] No significant difference between CVGTNCY (SEQ ID NO:2) and G7 titers was determined in the rest of the analyzed organs/tissues).

mouse brain = test: In vivo play-off screen with 4 CX4CYX peptides; conditions: compared to CAGALCY
[3] = WT-GBM and VEGFko GBM-bearing mice

CVGTNCY
cell type targeted in normal brain [1]: binding to the cortical neurons in the normal brain | detection in brain parenchyma [1, 3]: detected in the brain parenchyma | detection/targeting in GBM [1, 3]: activated microglia in GBM | detection in brain parenchyma ([1]; WT-GBM and VEGFko GBM-bearing mice, listed as CVG): homed to brain parenchyma and GBM | binding to brain tissue homogenate ex vivo in the presence of whole blood (brain tissue homogenate; with blood sample, p<0.05): significantly increase binding | binding to brain tissue homogenate ex vivo (brain tissue homogenate; without blood): no binding was detected; also recorded: significantly disrupted | PFU per mg of GBM vs normal brain [2]: greater than normal brain tissue | ratio of CVG over G7 in GBM vs normal brain [2]: lower than in normal brain | homing preference (mouse CNS; mouse, in vivo): homes preferentially to the eyes/brain/CNS | homing to other organs (mouse CNS; peptide-phage i.v., 1 h, mice): did not show a trend of homing | level in CNS and eyes compared to control G7 phage (mouse CNS; peptide-phage i.v., 1 h, mice): High level | regional homing in CNS (mouse CNS; peptide-phage i.v., 1 h, mice): tendency to home more to the hippocampus, frontal cortex and cerebellum | representation in the brain (mouse brain): highest representation in the brain
